In IntAct's records for PubMed 35512704:

B1: Speckle-type POZ protein (Homo sapiens), O43791 (parent)
chain: MSRVPSPPPPAEMSSGPVAESWCYTQIKVVKFSYMWTINNFSFCREEMGEVIKSSTFSSGANDKLKWCLRVNPKGLDEESKDYLSLYLLLVSCPKSEVRAKFKFSILNAKGEETKAMESQRAYRFVQGKDWGFKKFIRRDFLLDEANGLLPDDKLTLFCEVSVVQDSVNISGQNTMNMVKVPECRLADELGGLWENSRFTDCCLCVAGQEFQAHKAILAARSPVFSAMFEHEMEESKKNRVEINDVEPEVFKEMMCFIYTGKAPNLDKMADDLLAAADKYALERLKVMCEDALCSNLSVENAAEILILADLHSADQLKTQAVDFINYHASDVLETSGWKSMVVSHPHLVAEAYRSLASAQCPFLGPPRKRLKQS
partner: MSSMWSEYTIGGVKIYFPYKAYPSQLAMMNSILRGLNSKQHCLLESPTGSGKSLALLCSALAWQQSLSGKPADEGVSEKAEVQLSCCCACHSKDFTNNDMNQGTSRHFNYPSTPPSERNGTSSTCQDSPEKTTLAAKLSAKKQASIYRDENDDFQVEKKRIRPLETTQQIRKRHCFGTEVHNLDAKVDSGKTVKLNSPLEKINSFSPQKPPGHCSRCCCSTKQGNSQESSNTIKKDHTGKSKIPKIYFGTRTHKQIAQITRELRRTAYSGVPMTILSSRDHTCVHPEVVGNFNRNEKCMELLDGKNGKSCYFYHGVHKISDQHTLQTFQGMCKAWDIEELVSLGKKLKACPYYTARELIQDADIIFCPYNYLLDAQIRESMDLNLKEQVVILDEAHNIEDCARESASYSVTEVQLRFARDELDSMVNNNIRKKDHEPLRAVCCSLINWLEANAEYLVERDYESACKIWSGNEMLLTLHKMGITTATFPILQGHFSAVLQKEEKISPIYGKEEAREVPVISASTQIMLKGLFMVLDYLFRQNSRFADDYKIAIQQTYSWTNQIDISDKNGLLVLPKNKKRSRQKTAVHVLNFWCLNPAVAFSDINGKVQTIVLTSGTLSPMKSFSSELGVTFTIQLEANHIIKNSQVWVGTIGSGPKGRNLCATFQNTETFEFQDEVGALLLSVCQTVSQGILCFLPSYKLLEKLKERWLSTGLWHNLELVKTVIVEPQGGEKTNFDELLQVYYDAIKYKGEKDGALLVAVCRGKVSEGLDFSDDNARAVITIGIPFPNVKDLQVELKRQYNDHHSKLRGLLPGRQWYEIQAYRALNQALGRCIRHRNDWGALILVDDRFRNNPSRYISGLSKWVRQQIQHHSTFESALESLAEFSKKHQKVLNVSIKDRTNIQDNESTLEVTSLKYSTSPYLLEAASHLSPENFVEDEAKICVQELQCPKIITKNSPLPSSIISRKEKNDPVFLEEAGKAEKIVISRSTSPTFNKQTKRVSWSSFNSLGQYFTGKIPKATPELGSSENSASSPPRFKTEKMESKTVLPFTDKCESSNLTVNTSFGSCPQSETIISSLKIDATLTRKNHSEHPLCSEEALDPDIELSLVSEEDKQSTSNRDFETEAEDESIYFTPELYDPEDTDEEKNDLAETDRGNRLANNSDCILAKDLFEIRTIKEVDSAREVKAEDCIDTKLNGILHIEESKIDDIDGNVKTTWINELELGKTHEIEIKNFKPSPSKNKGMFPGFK
B2: Speckle-type POZ protein (Homo sapiens), O43791 (parent)
chain: B1 chain
partner: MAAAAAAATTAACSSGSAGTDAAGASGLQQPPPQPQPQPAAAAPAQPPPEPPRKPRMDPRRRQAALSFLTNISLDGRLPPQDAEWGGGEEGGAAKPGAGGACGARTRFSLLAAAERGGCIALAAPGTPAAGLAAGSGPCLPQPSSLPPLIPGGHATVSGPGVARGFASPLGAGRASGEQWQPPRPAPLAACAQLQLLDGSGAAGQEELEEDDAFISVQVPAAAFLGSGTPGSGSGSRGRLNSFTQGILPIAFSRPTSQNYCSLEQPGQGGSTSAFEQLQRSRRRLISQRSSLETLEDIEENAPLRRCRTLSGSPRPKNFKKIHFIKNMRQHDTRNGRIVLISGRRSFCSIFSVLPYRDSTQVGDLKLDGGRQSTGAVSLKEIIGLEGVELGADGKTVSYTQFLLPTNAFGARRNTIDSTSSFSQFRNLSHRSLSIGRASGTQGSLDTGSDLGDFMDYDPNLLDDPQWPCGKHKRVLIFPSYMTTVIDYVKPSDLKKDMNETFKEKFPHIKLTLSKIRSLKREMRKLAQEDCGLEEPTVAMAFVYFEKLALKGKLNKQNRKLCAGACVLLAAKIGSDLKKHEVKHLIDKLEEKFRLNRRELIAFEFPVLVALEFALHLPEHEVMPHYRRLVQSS
B3: Speckle-type POZ protein (Homo sapiens), O43791 (parent)
chain: B1 chain
partner: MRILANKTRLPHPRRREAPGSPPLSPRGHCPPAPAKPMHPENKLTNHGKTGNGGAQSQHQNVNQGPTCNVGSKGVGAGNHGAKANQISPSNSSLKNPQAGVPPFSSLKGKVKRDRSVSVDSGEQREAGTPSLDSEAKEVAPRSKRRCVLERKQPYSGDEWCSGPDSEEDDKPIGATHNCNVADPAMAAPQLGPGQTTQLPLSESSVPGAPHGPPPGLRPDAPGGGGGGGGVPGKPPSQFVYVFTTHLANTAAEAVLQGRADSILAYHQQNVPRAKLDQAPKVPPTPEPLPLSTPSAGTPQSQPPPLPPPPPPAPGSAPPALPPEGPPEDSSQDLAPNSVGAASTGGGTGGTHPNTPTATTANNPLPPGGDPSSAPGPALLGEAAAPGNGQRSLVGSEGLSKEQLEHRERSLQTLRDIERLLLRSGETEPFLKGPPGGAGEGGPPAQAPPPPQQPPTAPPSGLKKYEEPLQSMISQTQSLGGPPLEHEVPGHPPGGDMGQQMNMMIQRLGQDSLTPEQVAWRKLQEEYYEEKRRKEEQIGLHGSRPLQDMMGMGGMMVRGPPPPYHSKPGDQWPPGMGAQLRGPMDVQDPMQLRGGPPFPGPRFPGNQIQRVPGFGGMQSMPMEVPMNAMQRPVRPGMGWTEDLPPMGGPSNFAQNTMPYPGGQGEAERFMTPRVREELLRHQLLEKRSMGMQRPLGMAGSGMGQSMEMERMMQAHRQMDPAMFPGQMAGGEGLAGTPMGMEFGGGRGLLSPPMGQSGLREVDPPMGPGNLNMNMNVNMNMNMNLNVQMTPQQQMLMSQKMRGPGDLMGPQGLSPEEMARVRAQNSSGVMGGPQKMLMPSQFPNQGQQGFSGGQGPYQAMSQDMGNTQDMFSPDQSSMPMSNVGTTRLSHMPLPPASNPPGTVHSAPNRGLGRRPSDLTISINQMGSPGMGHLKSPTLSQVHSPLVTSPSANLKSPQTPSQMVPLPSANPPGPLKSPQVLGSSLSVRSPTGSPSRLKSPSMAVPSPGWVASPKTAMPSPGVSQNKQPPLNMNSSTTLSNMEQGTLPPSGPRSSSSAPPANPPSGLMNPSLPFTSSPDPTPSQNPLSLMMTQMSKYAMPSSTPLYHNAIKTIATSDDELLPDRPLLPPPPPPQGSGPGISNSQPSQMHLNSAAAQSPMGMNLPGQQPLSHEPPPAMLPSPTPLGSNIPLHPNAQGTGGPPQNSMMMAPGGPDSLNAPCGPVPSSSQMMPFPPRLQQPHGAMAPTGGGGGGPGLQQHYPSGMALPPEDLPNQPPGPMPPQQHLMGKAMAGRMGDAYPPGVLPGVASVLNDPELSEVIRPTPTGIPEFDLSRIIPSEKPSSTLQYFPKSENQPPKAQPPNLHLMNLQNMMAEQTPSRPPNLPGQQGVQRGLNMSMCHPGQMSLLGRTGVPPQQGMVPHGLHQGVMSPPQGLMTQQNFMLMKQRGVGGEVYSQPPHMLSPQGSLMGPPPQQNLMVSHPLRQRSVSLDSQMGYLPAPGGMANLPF

Variants of: B1
Settings: with fancj_human BRIP1, Q9BX63
In the case of MSRVPSPPPPAEMSSGPVAESWCYTQIKVVKFSYMWTINNFSFCREEMGEVIKSSTFSSGANDKLKWCLRVNPKGLDEESKDYLSLYLLLVSCPKSEVRAKFKFSILNAKGEETKAMESQRAYRFVQGKDWGVKKFIRRDFLLDEANGLLPDDKLTLFCEVSVVQDSVNISGQNTMNMVKVPECRLADELGGLWENSRFTDCCLCVAGQEFQAHKAILAARSPVFSAMFEHEMEESKKNRVEINDVEPEVFKEMMCFIYTGKAPNLDKMADDLLAAADKYALERLKVMCEDALCSNLSVENAAEILILADLHSADQLKTQAVDFINYHASDVLETSGWKSMVVSHPHLVAEAYRSLASAQCPFLGPPRKRLKQS [F133V], the “effect of a mutation on the interaction” value is reported as “with no effect”.

Variants of: B1
Settings: with fancj_human BRIP1, Q9BX63
Remark: another data set of the same source
With MSRVPSPPPPAEMSSGPVAESWCYTQIKVVKFSYMWTINNFSFCREEMGEVIKSSTFSSGANDKLKWCLRVNPKGLDEESKDYLSLYLLLVSCPKSEVRAKFKFSILNAKGEETKAMESQRAYRFVQGKDWGLKKFIRRDFLLDEANGLLPDDKLTLFCEVSVVQDSVNISGQNTMNMVKVPECRLADELGGLWENSRFTDCCLCVAGQEFQAHKAILAARSPVFSAMFEHEMEESKKNRVEINDVEPEVFKEMMCFIYTGKAPNLDKMADDLLAAADKYALERLKVMCEDALCSNLSVENAAEILILADLHSADQLKTQAVDFINYHASDVLETSGWKSMVVSHPHLVAEAYRSLASAQCPFLGPPRKRLKQS [F133L] the “effect of a mutation on the interaction” value was “with no effect”.

Variants of: B1
Settings: with fancj_human BRIP1, Q9BX63
Remark: another data set of the same source
In the case of MSRVPSPPPPAEMSSGPVAESWCYTQIKVVKFSYMWTINNFSFCREEMGEVIKSSTFSSGANDKLKWCLRVNPKGLDEESKDYLSLYLLLVSCPKSEVRAKCKFSILNAKGEETKAMESQRAYRFVQGKDWGFKKFIRRDFLLDEANGLLPDDKLTLFCEVSVVQDSVNISGQNTMNMVKVPECRLADELGGLWENSRFTDCCLCVAGQEFQAHKAILAARSPVFSAMFEHEMEESKKNRVEINDVEPEVFKEMMCFIYTGKAPNLDKMADDLLAAADKYALERLKVMCEDALCSNLSVENAAEILILADLHSADQLKTQAVDFINYHASDVLETSGWKSMVVSHPHLVAEAYRSLASAQCPFLGPPRKRLKQS [F102C], the “effect of a mutation on the interaction” value is reported as “with no effect”.

Variants of: B1
Settings: with fancj_human BRIP1, Q9BX63
Remark: another data set of the same source
With MSRVPSPPPPAEMSSGPVAESWCYTQIKVVKFSYMWTINNFSFCREEMGEVIKSSTFSSGANDKLKWCLRVNPKGLDEESKDYLSLCLLLVSCPKSEVRAKFKFSILNAKGEETKAMESQRAYRFVQGKDWGFKKFIRRDFLLDEANGLLPDDKLTLFCEVSVVQDSVNISGQNTMNMVKVPECRLADELGGLWENSRFTDCCLCVAGQEFQAHKAILAARSPVFSAMFEHEMEESKKNRVEINDVEPEVFKEMMCFIYTGKAPNLDKMADDLLAAADKYALERLKVMCEDALCSNLSVENAAEILILADLHSADQLKTQAVDFINYHASDVLETSGWKSMVVSHPHLVAEAYRSLASAQCPFLGPPRKRLKQS [Y87C] the “effect of a mutation on the interaction” value was “with no effect”.

Variants of: B2
Settings: with cabl1_human CABLES1, Q8TDN4
For MSRVPSPPPPAEMSSGPVAESWCYTQIKVVKFSYMWTINNFSFCREEMGEVIKSSTFSSGANDKLKWCLRVNPKGLDEESKDYLSLYLLLVSCPKSEVRAKCKFSILNAKGEETKAMESQRAYRFVQGKDWGFKKFIRRDFLLDEANGLLPDDKLTLFCEVSVVQDSVNISGQNTMNMVKVPECRLADELGGLWENSRFTDCCLCVAGQEFQAHKAILAARSPVFSAMFEHEMEESKKNRVEINDVEPEVFKEMMCFIYTGKAPNLDKMADDLLAAADKYALERLKVMCEDALCSNLSVENAAEILILADLHSADQLKTQAVDFINYHASDVLETSGWKSMVVSHPHLVAEAYRSLASAQCPFLGPPRKRLKQS [F102C], the “effect of a mutation on the interaction” value was “with no effect”.

Variants of: B3
Settings: with bcl9l_human BCL9L
In the case of MSRVPSPPPPAEMSSGPVAESWCYTQIKVVKFSYMWTINNFSFCREEMGEVIKSSTFSSGANDKLKWCLRVNPKGLDEESKDYLSLYLLLVSCPKSEVRAKFKFSILNAKGEETKAMESQRAYRFVQGKDWGVKKFIRRDFLLDEANGLLPDDKLTLFCEVSVVQDSVNISGQNTMNMVKVPECRLADELGGLWENSRFTDCCLCVAGQEFQAHKAILAARSPVFSAMFEHEMEESKKNRVEINDVEPEVFKEMMCFIYTGKAPNLDKMADDLLAAADKYALERLKVMCEDALCSNLSVENAAEILILADLHSADQLKTQAVDFINYHASDVLETSGWKSMVVSHPHLVAEAYRSLASAQCPFLGPPRKRLKQS [F133V], the “effect of a mutation on the interaction” value is reported as “with no effect”.

Variants of: B3
Settings: with bcl9l_human BCL9L
Remark: another data set of the same source
MSRVPSPPPPAEMSSGPVAESWCYTQIKVVKFSYMWTINNFSFCREEMGEVIKSSTFSSGANDKLKWCLRVNPKGLDEESKDYLSLYLLLVSCPKSEVRAKFKFSILNAKGEETKAMESQRAYRFVQGKDWGLKKFIRRDFLLDEANGLLPDDKLTLFCEVSVVQDSVNISGQNTMNMVKVPECRLADELGGLWENSRFTDCCLCVAGQEFQAHKAILAARSPVFSAMFEHEMEESKKNRVEINDVEPEVFKEMMCFIYTGKAPNLDKMADDLLAAADKYALERLKVMCEDALCSNLSVENAAEILILADLHSADQLKTQAVDFINYHASDVLETSGWKSMVVSHPHLVAEAYRSLASAQCPFLGPPRKRLKQS [F133L] was tested, and the “effect of a mutation on the interaction” value was “with no effect”.

Variants of: B3
Settings: with bcl9l_human BCL9L
Remark: another data set of the same source
With MSRVPSPPPPAEMSSGPVAESWCYTQIKVVKFSYMWTINNFSFCREEMGEVIKSSTFSSGANDKLKWCLRVNPKGLDEESKDYLSLCLLLVSCPKSEVRAKFKFSILNAKGEETKAMESQRAYRFVQGKDWGFKKFIRRDFLLDEANGLLPDDKLTLFCEVSVVQDSVNISGQNTMNMVKVPECRLADELGGLWENSRFTDCCLCVAGQEFQAHKAILAARSPVFSAMFEHEMEESKKNRVEINDVEPEVFKEMMCFIYTGKAPNLDKMADDLLAAADKYALERLKVMCEDALCSNLSVENAAEILILADLHSADQLKTQAVDFINYHASDVLETSGWKSMVVSHPHLVAEAYRSLASAQCPFLGPPRKRLKQS [Y87C] the “effect of a mutation on the interaction” value was “with no effect”.
